Test [1] deals with T1, Arabidopsis thaliana NPL4 (Arabidopsis thaliana, UniProt O82264 1-413, Alexa-488 dye label in the MST experiments only).
T1 construct: Nuclear protein localisation protein 4 (AtNPL4), Arabidopsis thaliana, locus AT2g47970; cDNA cloned into pGEX6P-1; also called AtNPL4; wild-type AtNPL4; not shown: GST, N-terminal, cleaved
T1 sequence: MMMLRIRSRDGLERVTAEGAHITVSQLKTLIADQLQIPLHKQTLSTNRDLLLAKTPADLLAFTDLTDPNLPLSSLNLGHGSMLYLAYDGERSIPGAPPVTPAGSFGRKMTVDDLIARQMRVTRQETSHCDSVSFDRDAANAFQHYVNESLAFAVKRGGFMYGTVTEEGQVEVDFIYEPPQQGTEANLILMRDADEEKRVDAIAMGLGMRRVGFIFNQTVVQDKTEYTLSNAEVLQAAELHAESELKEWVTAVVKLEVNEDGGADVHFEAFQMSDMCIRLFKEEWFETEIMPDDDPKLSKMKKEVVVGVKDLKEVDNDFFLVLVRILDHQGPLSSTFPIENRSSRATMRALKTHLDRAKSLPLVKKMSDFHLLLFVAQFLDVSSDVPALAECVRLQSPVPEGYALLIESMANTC
Description: MST; Alexa-488-labelled AtNPL4 (50 nM dye solution mixed 1:1), AtUFD1A or AtUFD1B titrated in 16 dilutions; pH 7.5 (50 mM Tris-HCl, 100 mM NaCl, 1 mM TCEP), Tween-20. The following applies: both partners purified.

Test [2] deals with T2, Arabidopsis thaliana CDC48A (Arabidopsis thaliana, UniProt P54609 1-809).
T2 construct: Cell division cycle protein 48 A (AtCDC48A), Arabidopsis thaliana, locus AT3g09840; recombinant full-length protein; Homo-hexamer; ADP-saturated or nucleotide-free in some experiments (told by the assay); also called AtCDC48A; AtCDC48; not shown: GST, N-terminal, cleaved
T2 sequence (P54609 whole entry): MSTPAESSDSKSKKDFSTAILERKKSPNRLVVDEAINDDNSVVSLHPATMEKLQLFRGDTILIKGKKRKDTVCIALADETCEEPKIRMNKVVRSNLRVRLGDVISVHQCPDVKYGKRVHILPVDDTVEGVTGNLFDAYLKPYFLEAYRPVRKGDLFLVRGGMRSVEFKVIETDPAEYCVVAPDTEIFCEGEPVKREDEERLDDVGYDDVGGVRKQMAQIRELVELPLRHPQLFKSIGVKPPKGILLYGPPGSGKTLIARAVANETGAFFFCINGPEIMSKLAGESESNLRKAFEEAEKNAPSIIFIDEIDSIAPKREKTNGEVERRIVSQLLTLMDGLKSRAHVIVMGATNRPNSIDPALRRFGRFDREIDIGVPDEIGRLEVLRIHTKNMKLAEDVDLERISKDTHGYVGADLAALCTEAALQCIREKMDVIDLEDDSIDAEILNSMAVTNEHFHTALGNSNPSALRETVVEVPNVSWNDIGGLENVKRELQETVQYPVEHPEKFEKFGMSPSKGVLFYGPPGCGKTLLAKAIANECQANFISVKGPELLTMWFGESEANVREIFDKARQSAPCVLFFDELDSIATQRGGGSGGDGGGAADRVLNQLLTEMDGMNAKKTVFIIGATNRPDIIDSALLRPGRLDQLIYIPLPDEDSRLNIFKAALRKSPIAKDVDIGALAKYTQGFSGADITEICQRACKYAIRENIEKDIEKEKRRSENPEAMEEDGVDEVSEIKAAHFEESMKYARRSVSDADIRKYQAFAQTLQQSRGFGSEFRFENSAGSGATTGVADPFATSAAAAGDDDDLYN
Kind of test: ITC; AtCDC48A in the cell (30 µM; 10 µM for AtNPL4B UBXL), partner 200 µM in the syringe; 2 mM AMPPNP; 50 mM Bis-Tris pH 6.5, 100 mM NaCl, 1 mM TCEP, 2 mM MgCl2; 25°C. The conditions noted are these: both partners purified. In general terms: Isothermal titration calorimetry measures the heat released or taken up as one component is titrated into another.

Consider three molecules from publication doi:10.1101/2025.03.28.645892, “Plant-specific adaptations of the CDC48 unfoldase” (bioRxiv, 2025).

B1: Arabidopsis thaliana UFD1B (natural protein, UniProt Q9SJV0 1-340, looked up)
chain: MVLRFCCHLLTYSVSLLPPITMFFDGYHYHGTTFEQSYRCYPASFIDKPQLESGDKIIMPPSALDRLASLHIDYPMLFELRNAGIERVTHCGVLEFIAEEGMIYMPYWMMQNLLLQEGDIVRVRNVTLPKGTYVKLQPHTTDFLDISNPKAILETALRNYSCLTSGDSIMVPYNNKKYFIDIVETKPANAISIIETDCEVDFAPPLDYKEPERPTAPSAAKGPAKAEEVVDEPEPKFNPFTGSGRRLDGRPLAYEPAPASSSKGKQPVVANGNGQSSVASSSEKATRAQGKLVFGANGNRAPKEAAPKVGAAKETKKEEQEKKDEPKFQAFSGKKYSLRG
notes: Ubiquitin fusion degradation protein 1 paralogue B (AtUFD1B), Arabidopsis thaliana, locus AT2g21270; cDNA cloned into pGEX6P-1; also called AtUFD1B; AtUFD1; not shown: GST, N-terminal, cleaved
In the case of B1, in test [1], the Kd is above 200 µM.

B2: AtNPL4B F105A (natural protein, Arabidopsis thaliana, UniProt Q9LYC2 1-413, looked up)
chain: MTMLRVRSRDGLERVSVDGPHITVSQLKTLIQDQLQIPIHNQTLSTNRNLLLAKSPSDFLAFTDMADPNLRISSLNLAHGSMVYLAYEGERTIRGGPAVTPAGSAGRKMTVEDLIARQMRVGRQEKAHCDSVSFDRDCANAFQHFVNESLAFAVKRGGFMYGNVSEDGQVEVNFIYEPPQQGMEDNLILMRDSEEEKRVDAIALGLGMRRVGFIFNQTVTQDKKEYTLSNVEVLLAAQLHAESELKEWVTAVVKLEINEDGGADVHFEPFQMSDMCVRLFKEGWFETEIGPEDDPKLSKLKKEVVVGVKDVKEVDNDFFLVLVKILDHQGPLSCTFPIENRNTQTTMRALKTHMERARSLPFVKRISDFHLLLFVAQFLDVSSDVPALAECVRLQSHVPEGYELLIDSMANTS
notes: AtNPL4B, second NPL4 variant of Arabidopsis thaliana, locus AT3g63000 (84% identical to AtNPL4); ordered from Twist Biosciences in pGEX6P-1; The wild-type AtNPL4B was not measured; also called the F105 mutant; not shown: GST, N-terminal, cleaved
Turning to B2, in test [2], the binding result is “binds”.

B3: AtNPL4B UBXL domain (domain or fragment, Arabidopsis thaliana, UniProt Q9LYC2 1-89, looked up)
chain: MTMLRVRSRDGLERVSVDGPHITVSQLKTLIQDQLQIPIHNQTLSTNRNLLLAKSPSDFLAFTDMADPNLRISSLNLAHGSMVYLAYEG
notes: UBX-like (UBXL) domain of AtNPL4B, Arabidopsis thaliana, locus AT3g63000, residues 1-89; also called the isolated UBXL domain; not shown: GST, N-terminal, cleaved
Take B3: the “stoichiometry N” value in test [2] is 6 AtNPL4B_(UBXL) per hexamer.

What is called Kd is the free concentration of one partner at which half of the binding sites on the other are occupied at equilibrium, for simple one-to-one binding. The low end stands for higher affinity, the high end for lower affinity.
